Experimental data reported in patent US20140249091A1 (BIOUSIAN BIOSYSTEMS, published 2014).
Where two headings read alike, the source gives them in different places. Non-standard residues stand in square brackets, D forms with d. *: point of attachment. βGlc = OC[C@H]1O[C@@H](*)[C@H](O)[C@@H](O)[C@@H]1O; Nle = CCCC[C@H](N)C(=O)O; Nva = CCC[C@H](N)C(=O)O

Assays:
human mu opioid receptor [1] = molecular target: T1, human mu opioid receptor (human, UniProt P35372 1-400); assay: competition vs [3H]DAMGO, hMOR CHO cell membranes (summary table)
T1 construct: whole, on cells; Assayed as CHO cell membranes; also called hMOR; MOR

human mu opioid receptor [2] = molecular target: T1, human mu opioid receptor; assay: cell-based or functional assay
[3] = molecular target: T2, human delta opioid receptor (human, UniProt P41143 1-372); assay: cell-based or functional assay
[4] = molecular target: T2, human delta opioid receptor; assay: radioligand competition; reference hMOR
human mu opioid receptor [5] = molecular target: T1, human mu opioid receptor; assay: competition vs 0.25 nM [3H]DAMGO, hMOR CHO cell membranes
[6] = molecular target: T2, human delta opioid receptor; assay: competition vs 0.2 nM [3H]naltrindole, hDOR CHO cell membranes
[7] = molecular target: human kappa opioid receptor (human) (UniProt P41145); assay: inhibition of [3H]U69,593 binding at 10 uM peptide, hKOR CHO cell membranes
[8] = molecular target: T2, human delta opioid receptor; assay: competition vs [3H]naltrindole, hDOR CHO cell membranes; reference DPDPE
[9] = molecular target: T2, human delta opioid receptor; assay: competition vs [3H]naltrindole, hDOR CHO cell membranes (summary table)
human mu opioid receptor [10] = molecular target: T1, human mu opioid receptor; assay: competition vs 0.25 nM [3H]DAMGO, hMOR CHO cell membranes; remark: listed apart in the source
[11] = molecular target: T2, human delta opioid receptor; assay: competition vs 0.2 nM [3H]naltrindole, hDOR CHO cell membranes; remark: listed apart in the source
[12] = molecular target: human kappa opioid receptor (human) (UniProt P41145); assay: inhibition of [3H]U69,593 binding at 10 uM peptide, hKOR CHO cell membranes; remark: listed apart in the source

T1 sequence (P35372 whole entry): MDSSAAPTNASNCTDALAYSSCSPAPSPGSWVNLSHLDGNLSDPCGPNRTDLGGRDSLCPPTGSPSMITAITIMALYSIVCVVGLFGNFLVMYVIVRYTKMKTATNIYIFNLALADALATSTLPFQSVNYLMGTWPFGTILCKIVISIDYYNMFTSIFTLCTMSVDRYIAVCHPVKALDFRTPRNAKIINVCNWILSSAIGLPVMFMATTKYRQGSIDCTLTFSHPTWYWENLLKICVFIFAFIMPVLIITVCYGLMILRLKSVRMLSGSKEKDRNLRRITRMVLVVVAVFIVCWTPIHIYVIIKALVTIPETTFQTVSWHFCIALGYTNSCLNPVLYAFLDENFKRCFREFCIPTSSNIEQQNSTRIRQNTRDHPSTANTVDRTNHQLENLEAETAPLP
T2 sequence (P41143 whole entry, stated change not applied): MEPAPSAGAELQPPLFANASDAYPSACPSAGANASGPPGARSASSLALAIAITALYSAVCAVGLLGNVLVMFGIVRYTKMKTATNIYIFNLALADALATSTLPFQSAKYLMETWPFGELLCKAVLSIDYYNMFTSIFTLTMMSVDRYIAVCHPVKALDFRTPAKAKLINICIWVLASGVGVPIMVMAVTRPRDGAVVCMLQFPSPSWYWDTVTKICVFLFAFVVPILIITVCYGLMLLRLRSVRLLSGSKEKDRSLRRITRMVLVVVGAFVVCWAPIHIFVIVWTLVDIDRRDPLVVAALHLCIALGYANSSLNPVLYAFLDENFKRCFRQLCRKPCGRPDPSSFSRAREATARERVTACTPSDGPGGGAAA
Chain of human kappa opioid receptor (human) (P41145 whole entry): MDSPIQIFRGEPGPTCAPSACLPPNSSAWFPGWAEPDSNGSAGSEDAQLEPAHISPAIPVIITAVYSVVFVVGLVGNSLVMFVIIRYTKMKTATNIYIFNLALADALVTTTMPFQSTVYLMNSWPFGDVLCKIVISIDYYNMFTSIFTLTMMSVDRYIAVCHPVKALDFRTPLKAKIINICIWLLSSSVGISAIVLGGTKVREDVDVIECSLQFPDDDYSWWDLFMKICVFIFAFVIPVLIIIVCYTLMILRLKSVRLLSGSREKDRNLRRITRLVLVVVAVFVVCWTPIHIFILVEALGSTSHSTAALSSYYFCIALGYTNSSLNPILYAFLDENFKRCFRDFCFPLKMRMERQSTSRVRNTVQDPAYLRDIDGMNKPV

## DPDPE (peptide)
Human mu opioid receptor [1]
  Ki: 180 nM

## 11009 (H2N-YaFE-Nle-Nle-T-amide) (peptide)
Human mu opioid receptor [2]
  EMax (%), agonist properties, [35S]GTPγS binding: 42%
[3]
  EC50 (nM), agonist properties, [35S]GTPγS binding: 12 nM
  EMax (%), agonist properties, [35S]GTPγS binding: 67%

B1: 11008 = Deltorphin B4, H2N-YaFE-Nle-Nle-T(beta-D-Glc)-amide (peptide)
peptide: H-Y[dA]FE[Nle][Nle]T(βGlc)-NH2
SMILES: CCCC[C@H](NC(=O)[C@H](CCC(=O)O)NC(=O)[C@H](Cc1ccccc1)NC(=O)[C@@H](C)NC(=O)[C@@H](N)Cc1ccc(O)cc1)C(=O)N[C@@H](CCCC)C(=O)N[C@H](C(N)=O)[C@@H](C)O[C@@H]1O[C@H](CO)[C@@H](O)[C@H](O)[C@H]1O
[3]
  EC50 (nM), agonist properties, [35S]GTPγS binding: 12 nM
[4]
  Selectivity Delta:Mu: 79 fold (Ki mu over Ki delta)
Human mu opioid receptor [5]
  IC50: 1500 nM
  Ki: 1100 nM
[6]
  IC50: 42 nM
  Ki: 14 nM
[7]
  Max Inhib at 10 uM (%): 2.9%
Human mu opioid receptor [1]
  Ki: 1100 nM
[8]
  fold lower affinity than DPDPE: ~3 fold
[9]
  Ki: 14 nM

B2: 11005 = Deltorphin B1, H2N-YaFE-Nva-Nva-S(beta-D-Glc)-amide (peptide)
peptide: H-Y[dA]FE[Nva][Nva]S(βGlc)-NH2
SMILES: CCC[C@H](NC(=O)[C@H](CCC)NC(=O)[C@H](CCC(=O)O)NC(=O)[C@H](Cc1ccccc1)NC(=O)[C@@H](C)NC(=O)[C@@H](N)Cc1ccc(O)cc1)C(=O)N[C@@H](CO[C@@H]1O[C@H](CO)[C@@H](O)[C@H](O)[C@H]1O)C(N)=O
notes: also called glycopeptide 11005
[4]
  Selectivity Delta:Mu: 36 fold (Ki mu over Ki delta)
Human mu opioid receptor [10]
  IC50: 1000 nM
  Ki: 710 nM
[11]
  IC50: 61 nM
  Ki: 20 nM
[12]
  Max Inhib at 10 uM (%): 5.3%
Human mu opioid receptor [1]
  Ki: 710 nM
[9]
  Ki: 20 nM
